From the supplement of paper PMC10724198 come the findings set out here.

± gives the standard deviation of the averaged measurements.

In data set [1] the test system is Saccharomyces cerevisiae. In words: protein stability index of tFT-peptide fusion (C-terminal peptide) (PSI (0-1 scale)); higher = more stable (slower turnover). As to the method: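 MPS profiling in S. cerevisiae of the tFT-X12 degron library: putative degron peptides plus stable controls, 12 aa, fused to the C-terminus of a sfGFP-mCherry timer. Cells are FACS-sorted into 8 mCherry/sfGFP bins and deep-sequenced. PSI runs from 0 (unstable) to 1 (stable). Backgrounds are wild type, das1Δ and doa10Δ at 30 °C, and wild type, das1Δ, cdc34-1 and cdc53-1 at 37 °C; 2-3 technical replicates each.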

In data set [2] the test system is Saccharomyces cerevisiae. The data set is described as above. The following applies: genetic background: wild type; temperature: 30 C.
Setting [3] is: genetic background: cdc34-1, temperature: 37 C.
[4] abbreviates: genetic background: cdc53-1, temperature: 37 C.
Where [5] appears, read: genetic background: das1 deletion, temperature: 30 C.
The mark [6] stands for this setting: genetic background: das1 deletion, temperature: 37 C.
Setting [7] is: genetic background: doa10 deletion, temperature: 30 C.
The mark [8] stands for this setting: genetic background: wild type, temperature: 30 C.
The mark [9] stands for this setting: genetic background: wild type, temperature: 37 C.
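Note: PSI is a weighted mean of sequencing reads over stability bins, variants kept only with over 10 reads, mCherry proximal and sfGFP distal, peptide attached via GGGS linker.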

GDSVRVIIFCLN: the protein stability index worked out at 0.465 ± 0.041 in data set [1] (setting [3]); 0.707 ± 0.086 in data set [1] (setting [4]); 0.339 ± 0.054 in data set [1] (setting [5]); 0.686 ± 0.068 in data set [1] (setting [6]); 0.119 ± 0.02 in data set [1] (setting [7]); 0.136 ± 0.027 in data set [1] (setting [8]). The protein stability index in data set [1] (setting [9]) was determined as 0.1273 ± 0.00068; in data set [2], 0.304 ± 0.081.
Regarding GEVLWAVLLVSC, the protein stability index was determined as 0.1782 ± 0.00065 in data set [1] (setting [3]); 0.208 ± 0.016 in data set [1] (setting [4]); 0.215 ± 0.029 in data set [1] (setting [5]); 0.343 ± 0.0077 in data set [1] (setting [6]); 0.164 ± 0.023 in data set [1] (setting [7]); 0.198 ± 0.038 in data set [1] (setting [8]). For the same sequence, the values for the protein stability index in data set [1] (setting [9]) and in data set [2] were 0.3 ± 0.0077 and 0.299 ± 0.0047, respectively.
For GFFCFLYFVVMF, the protein stability index worked out at 0.148 ± 0.0033 in data set [1] (setting [3]); 0.1695 ± 0.0013 in data set [1] (setting [4]); 0.18 ± 0.026 in data set [1] (setting [5]); 0.296 ± 0.013 in data set [1] (setting [6]); 0.2127 ± 0.0014 in data set [1] (setting [7]); 0.187 ± 0.018 in data set [1] (setting [8]). For the same sequence, the protein stability index in data set [1] (setting [9]) is 0.277 ± 0.0028; in data set [2] it was 0.226 ± 0.021.
Consider GFIRVRHLRSLC, for which the protein stability index came out at 0.55 ± 0.0029 in data set [1] (setting [3]); 0.658 ± 0.024 in data set [1] (setting [4]); 0.645 ± 0.019 in data set [1] (setting [5]); 0.7128 ± 0.0023 in data set [1] (setting [6]); 0.121 ± 0.019 in data set [1] (setting [7]); 0.138 ± 0.015 in data set [1] (setting [8]). Moreover, the protein stability index in data set [1] (setting [9]) turned out to be 0.194 ± 0.026; in data set [2], 0.234 ± 0.026.
Turning to GFSFFFIFWFFF, the protein stability index in data set [1] (setting [3]) is 0.394 ± 0.014; in data set [1] (setting [4]), 0.422 ± 0.011; in data set [1] (setting [5]), 0.35 ± 0.018; in data set [1] (setting [6]) it was 0.503 ± 0.034; in data set [1] (setting [7]), 0.378 ± 0.034; in data set [1] (setting [8]), 0.339 ± 0.027. The protein stability index was determined as 0.436 ± 0.033 in data set [1] (setting [9]) and 0.348 ± 0.022 in data set [2].
Consider GFVCFIHLFLCF, for which the protein stability index in data set [1] (setting [3]) amounted to 0.3496 ± 0.0027; in data set [1] (setting [4]) it was 0.365 ± 0.011; in data set [1] (setting [5]), 0.334 ± 0.027; in data set [1] (setting [6]), 0.425 ± 0.027; in data set [1] (setting [7]) it was 0.471 ± 0.045; in data set [1] (setting [8]), 0.316 ± 0.0089. Also, the figures for the protein stability index in data set [1] (setting [9]) and in data set [2] were 0.367 ± 0.0056 and 0.407 ± 0.04, respectively.
With GFVVYLLLSYLF, the protein stability index in data set [1] (setting [3]) came out at 0.34 ± 0.016; in data set [1] (setting [4]), 0.413 ± 0.035; in data set [1] (setting [5]), 0.279 ± 0.039; in data set [1] (setting [6]), 0.482 ± 0.016; in data set [1] (setting [7]), 0.256 ± 0.0032; in data set [1] (setting [8]), 0.28 ± 0.019. Also, the protein stability index is 0.437 ± 0.024 in data set [1] (setting [9]) and 0.333 ± 0.091 in data set [2].
For GGFHWCPSASRG, the protein stability index in data set [1] (setting [3]) was determined as 0.712 ± 0.01; in data set [1] (setting [4]), 0.755 ± 0.016; in data set [1] (setting [5]), 0.647 ± 0.031; in data set [1] (setting [6]) it was 0.7536 ± 0.0026; in data set [1] (setting [7]), 0.678 ± 0.02; in data set [1] (setting [8]) it was 0.6726 ± 0.0059. Further, the protein stability index in data set [1] (setting [9]) is 0.749 ± 0.014; in data set [2], 0.711 ± 0.017.
In the case of GGGGLRVVVWLV, the protein stability index in data set [1] (setting [3]) was determined as 0.534 ± 0.032; in data set [1] (setting [4]), 0.647 ± 0.022; in data set [1] (setting [5]), 0.501 ± 0.021; in data set [1] (setting [6]) it was 0.6625 ± 0.0052; in data set [1] (setting [7]) it was 0.111 ± 0.011; in data set [1] (setting [8]) it was 0.124 ± 0.018. Also, the protein stability index in data set [1] (setting [9]) worked out at 0.15 ± 0.01; in data set [2], 0.211 ± 0.049.
